# US20180155451A1 (published 2018)
# T1: FcγRIIb extracellular domain with C-terminal His tag (human, UniProt P31994 43-217)
# T1 construct: extracellular domain; Soluble receptor expressed in FreeStyle293 cells; analyte in Biacore; also called FcgRIIb; 2b; not shown: His tag at the C terminus
# T1 sequence (looked up): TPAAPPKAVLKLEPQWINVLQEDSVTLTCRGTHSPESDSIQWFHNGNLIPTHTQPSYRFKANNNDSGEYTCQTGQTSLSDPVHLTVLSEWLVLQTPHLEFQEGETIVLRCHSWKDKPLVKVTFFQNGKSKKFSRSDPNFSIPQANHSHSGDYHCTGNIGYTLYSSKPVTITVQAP
# B1: GpH7-A5/GpH7-B3 variant A330_14T/GpL16-k0 (antibody, human IgG1, kappa)
# heavy 1: not shown
# heavy 2: not shown
# light: DIVMTQSPLSLPVTPGEPASISCQASESLVHSNRNTYLHWYLQKPGQSPQLLIYKVSNRFSGVPDRFSGSGSGTDFTLKISRVEAEDVGVYYCSQNTHVPPTFGQGTKVEIERTVAAPSVFIFPPSDEQLKSGTASVVCLLNNFYPREAKVQWKVDNALQSGNSQESVTEQDSKDSTYSLSSTLTLSKADYEKHKVYACEVTHQGLSSPVTKSFNRGEC
# notes: He Ab: heterodimerized anti-glypican-3 IgG1, substitution in one H chain only; also called He Ab A330T
# B2: GpH7-A5/GpH7-B3 variant P329_11K/GpL16-k0 (antibody, human IgG1, kappa)
# heavy 1: not shown
# heavy 2: not shown
# light: B1 light
# notes: He Ab: substitution in one H chain only; also called He Ab P329K
# B3: GpH7-A5/GpH7-B3 variant E333_02A/GpL16-k0 (antibody, human IgG1, kappa)
# heavy 1: not shown
# heavy 2: not shown
# light: B1 light
# notes: He Ab: heterodimerized anti-glypican-3 IgG1, substitution in one H chain only; also called He Ab E333A
# B4: GpH7-A5/GpH7-B3 variant I336_13S/GpL16-k0 (antibody, human IgG1, kappa)
# heavy 1: not shown
# heavy 2: not shown
# light: B1 light
# notes: He Ab: heterodimerized anti-glypican-3 IgG1, substitution in one H chain only; also called He Ab I336S
# B5: GpH7-A5/GpH7-B3 variant I332_12R/GpL16-k0 (antibody, human IgG1, kappa)
# heavy 1: not shown
# heavy 2: not shown
# light: B1 light
# notes: He Ab: heterodimerized anti-glypican-3 IgG1, substitution in one H chain only; also called He Ab I332R
# B6: GpH7-A5/GpH7-B3 variant E333_11K/GpL16-k0 (antibody, human IgG1, kappa)
# heavy 1: not shown
# heavy 2: not shown
# light: B1 light
# notes: He Ab: heterodimerized anti-glypican-3 IgG1, substitution in one H chain only; also called He Ab E333K
# B7: GpH7-A5/GpH7-B3 variant P329_12R/GpL16-k0 (antibody, human IgG1, kappa)
# heavy 1: not shown
# heavy 2: not shown
# light: B1 light
# notes: He Ab: substitution in one H chain only; also called He Ab P329R
# B8: GpH7-A5/GpH7-B3 variant I336_01G/GpL16-k0 (antibody, human IgG1, kappa)
# heavy 1: not shown
# heavy 2: not shown
# light: B1 light
# notes: He Ab: heterodimerized anti-glypican-3 IgG1, substitution in one H chain only; also called He Ab I336G
# B9: GpH7-A5/GpH7-B3 variant P329_09D/GpL16-k0 (antibody, human IgG1, kappa)
# heavy 1: not shown
# heavy 2: not shown
# light: B1 light
# notes: He Ab: substitution in one H chain only; also called He Ab P329D
# B10: GpH7-A5/GpH7-B3 variant A330_18N/GpL16-k0 (antibody, human IgG1, kappa)
# heavy 1: not shown
# heavy 2: not shown
# light: B1 light
# notes: He Ab: heterodimerized anti-glypican-3 IgG1, substitution in one H chain only; also called He Ab A330N
# B11: GpH7-A5/GpH7-B3 variant L328_01G/GpL16-k0 (antibody, human IgG1, kappa)
# heavy 1: not shown
# heavy 2: not shown
# light: B1 light
# notes: He Ab: heterodimerized anti-glypican-3 IgG1, substitution in one H chain only; also called He Ab L328G
# B12: GpH7-A5/GpH7-B3 variant L328_18N/GpL16-k0 (antibody, human IgG1, kappa)
# heavy 1: not shown
# heavy 2: not shown
# light: B1 light
# notes: He Ab: heterodimerized anti-glypican-3 IgG1, substitution in one H chain only; also called He Ab L328N
# B13: GpH7-A5/GpH7-B3 variant P329_06M/GpL16-k0 (antibody, human IgG1, kappa)
# heavy 1: not shown
# heavy 2: not shown
# light: B1 light
# notes: He Ab: heterodimerized anti-glypican-3 IgG1, substitution in one H chain only; also called He Ab P329M
# B14: GpH7-A5/GpH7-B3 variant P329_03V/GpL16-k0 (antibody, human IgG1, kappa)
# heavy 1: not shown
# heavy 2: not shown
# light: B1 light
# notes: He Ab: heterodimerized anti-glypican-3 IgG1, substitution in one H chain only; also called He Ab P329V
# B15: GpH7-A5/GpH7-B3 variant L328_05P/GpL16-k0 (antibody, human IgG1, kappa)
# heavy 1: not shown
# heavy 2: not shown
# light: B1 light
# notes: He Ab: heterodimerized anti-glypican-3 IgG1, substitution in one H chain only; also called He Ab L328P
# Columns and labels:
# [1] = target: T2, FcγRIa extracellular domain with C-terminal His tag (human, UniProt P12314 16-292); assay: SPR (Biacore), antibody captured on antigen peptide chip, FcγR as analyte; binding relative to GpH7-A5/GpH7-B3/GpL16-k0 = 100
# T2 construct: extracellular domain; Soluble receptor expressed in FreeStyle293 cells; analyte in Biacore; also called FcgRI; FcgRIa; not shown: His tag at the C terminus
# T2 sequence (P12314 16-292): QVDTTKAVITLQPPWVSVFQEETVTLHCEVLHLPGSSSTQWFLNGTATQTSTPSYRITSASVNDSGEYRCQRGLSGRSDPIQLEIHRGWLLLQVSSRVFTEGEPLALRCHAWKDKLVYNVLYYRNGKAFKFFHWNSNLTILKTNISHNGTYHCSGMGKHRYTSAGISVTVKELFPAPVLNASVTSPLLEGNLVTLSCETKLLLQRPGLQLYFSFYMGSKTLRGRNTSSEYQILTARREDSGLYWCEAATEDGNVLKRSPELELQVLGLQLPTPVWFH
# Protocol: (§1) The heterodimerized antibodies He Abs in which one of the H chains was introduced with an alteration were assayed for their binding activities to each activating FcγR and inhibitory FcγR according to the method described in Example 4. […] The activating FcγRs in FIGS. 26, 27, 28, and 29 are FcγRIa, FcγRIIa (R), FcγRIIa (H), and FcγRIIIa, respectively.
# (§2) Analysis of interaction between objective antibody and the FcγR was carried out using Biacore T100 (GE Healthcare). HBS-EP+ (GE Healthcare) was used as the running buffer, and the measurement temperature was set to 25° C. Chips produced by immobilizing the antigen peptide by the amine coupling method to a Series S Sencor Chip CM5 (GE Healthcare), or alternatively, chips produced by allowing preliminarily biotinylated antigen peptides to interact with and immobilize onto a Series S Sensor Chip SA (certified) (GE Healthcare) were used. Antibodies of interest were captured onto an antigen peptide-immobilized chip, and allowed to interact to each FcγR diluted with running buffer. To regenerate and repeatedly use the chip, the antibodies captured on the chip were washed off by reacting 10 mM glycine-HCl, pH 1.5.
# [2] = target: T1, FcγRIIb extracellular domain with …; assay: as above
# Protocol: as §1, §2
# [3] = target: T2, FcγRIa extracellular domain with …; assay: SPR (Biacore); He/Con_1a divided by He/Con_2b (FcγRIIb)
# Protocol: as §1, §2
Binder,He/Con_1a (Ia binding) [1],He/Con_2b (IIb binding) [2],He_1a/2b (Ia/IIb) [3]
B1,105 % of control (control = 100),77.9 % of control (control = 100),1.35
B2,70.4 % of control (control = 100),16.9 % of control (control = 100),4.17
B3,103 % of control (control = 100),83.8 % of control (control = 100),1.23
B4,102 % of control (control = 100),83.7 % of control (control = 100),1.22
B5,100 % of control (control = 100),48.9 % of control (control = 100),2.05
B6,102 % of control (control = 100),80.6 % of control (control = 100),1.27
B7,74.3 % of control (control = 100),17.6 % of control (control = 100),4.22
B8,109 % of control (control = 100),90.1 % of control (control = 100),1.21
B9,77.6 % of control (control = 100),53.5 % of control (control = 100),1.45
B10,106 % of control (control = 100),63.7 % of control (control = 100),1.67
B11,97.2 % of control (control = 100),80.2 % of control (control = 100),1.21
B12,98.7 % of control (control = 100),80.8 % of control (control = 100),1.22
B13,85.3 % of control (control = 100),29.1 % of control (control = 100),2.94
B14,97.4 % of control (control = 100),38.5 % of control (control = 100),2.53
B15,92.2 % of control (control = 100),65.1 % of control (control = 100),1.42
